Legend:
[1] = molecular target: T1, mouse MSR1 on RAW264.7 cells (mouse, UniProt P30204 1-458); assay: flow cytometry, RAW264.7 cells
T1 construct: whole, on cells; also called MSR1 positive RAW264.7 cells
T1 sequence (looked up): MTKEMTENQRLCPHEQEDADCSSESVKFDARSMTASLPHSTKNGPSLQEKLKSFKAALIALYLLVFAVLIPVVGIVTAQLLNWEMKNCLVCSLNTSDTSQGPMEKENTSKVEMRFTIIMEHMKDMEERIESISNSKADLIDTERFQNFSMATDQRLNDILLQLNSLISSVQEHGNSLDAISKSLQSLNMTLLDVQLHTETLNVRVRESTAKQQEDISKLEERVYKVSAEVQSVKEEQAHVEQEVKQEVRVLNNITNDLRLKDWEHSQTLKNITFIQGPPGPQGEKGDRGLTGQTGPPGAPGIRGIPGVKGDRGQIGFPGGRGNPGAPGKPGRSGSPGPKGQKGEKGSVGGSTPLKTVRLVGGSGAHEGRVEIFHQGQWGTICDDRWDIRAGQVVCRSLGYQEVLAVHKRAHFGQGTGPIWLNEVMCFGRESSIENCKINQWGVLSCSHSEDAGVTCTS
Experimental: To block binding to Fc receptors, RAW264.7 cells were incubated for 30 minutes at 4° C. with 500 pg/mL mouse IgG (Jackson ImmunoResearch, Cat #015-000-003) diluted in staining buffer, while B16F10.9 cells remained in staining buffer. […] The signal to noise (S/N) was determined by calculating the ratio of the anti-MSR1 antibodies or the control antibodies MFI to the unstained sample MFI (Table 11).

[2] = molecular target: T2, full length monkey MSR1 on HEK293.mfMSR1 cells (Macaca fascicularis, UniProt A0A2K5UWE2 1-451); assay: ECL cell binding, HEK293.mfMSR1 cells, 11 nM
T2 construct: whole, on cells
T2 sequence: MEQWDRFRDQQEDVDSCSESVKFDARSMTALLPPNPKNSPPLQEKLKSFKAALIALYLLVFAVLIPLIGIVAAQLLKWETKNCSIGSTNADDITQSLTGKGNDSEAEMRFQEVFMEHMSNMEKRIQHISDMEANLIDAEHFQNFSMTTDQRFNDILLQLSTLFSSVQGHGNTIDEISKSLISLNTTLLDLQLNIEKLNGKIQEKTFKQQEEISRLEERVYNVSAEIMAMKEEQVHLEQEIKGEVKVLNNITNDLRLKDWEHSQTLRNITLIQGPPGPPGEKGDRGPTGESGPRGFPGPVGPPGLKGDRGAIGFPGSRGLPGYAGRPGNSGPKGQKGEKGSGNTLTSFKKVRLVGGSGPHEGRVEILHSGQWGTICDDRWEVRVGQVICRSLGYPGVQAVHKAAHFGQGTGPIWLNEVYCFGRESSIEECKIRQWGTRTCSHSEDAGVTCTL
Experimental: (§1) All cells were washed once with 1×PBS with Ca²⁺/Mg²⁺ and counted with a Cellometer™ Auto T4 cell counter (Nexcelom Bioscience). Approximately 1.0×10⁴ cells were seeded separately onto 96-well carbon electrode plates [MULTI-ARRAY high bind plate, Meso Scale Diagnostics] and incubated for 1 hour at 37° C. Non-specific binding sites were then blocked by 2% BSA (w/v) in PBS with Ca²⁺/Mg²⁺ for 1 hour at room temperature. THP-1 cells were pre-incubated for 0.5 hours at room temperature in sample dilution buffer with: 1) 1 mg/mL Fc receptor block reagents to block Fc gamma receptors on THP-1 cell surface [whole molecule human IgG (Jackson Immunoresearch, Cat #009-000-003) for wells being tested with anti-MSR1-mFc antibodies or 2) whole molecule mlgG (Jackson Immunoresearch, Cat #015-000-003) for wells being tested with anti-MSR1-hFc antibodies. Antibody binding on HEK293.Myc.hMSR1, HEK293.mfMSR1 and HEK293 cells was tested without Fc receptor block reagents. […] Plates were then washed to remove unbound antibodies an AquaMax2000 plate washer with a cell washing head (MDS Analytical Technologies). […] Plates were washed and developed with Read Buffer (Meso Scale Diagnostics, Cat # R92TD-2) according to manufacturer's recommended procedure and luminescent signals were recorded with a SECTOR Imager 600 (Meso Scale Diagnostics). Luminescence intensity, measured in relative light units (RLU), was recorded to indicate the binding intensity of each antibody at the range of concentrations.

[3] = molecular target: T3, full length human MSR1 with a C-terminal Myc tag, on HEK293.Myc.hMSR1 cells (human, UniProt P21757 1-451); assay: cell-based or functional assay
T3 sequence (looked up): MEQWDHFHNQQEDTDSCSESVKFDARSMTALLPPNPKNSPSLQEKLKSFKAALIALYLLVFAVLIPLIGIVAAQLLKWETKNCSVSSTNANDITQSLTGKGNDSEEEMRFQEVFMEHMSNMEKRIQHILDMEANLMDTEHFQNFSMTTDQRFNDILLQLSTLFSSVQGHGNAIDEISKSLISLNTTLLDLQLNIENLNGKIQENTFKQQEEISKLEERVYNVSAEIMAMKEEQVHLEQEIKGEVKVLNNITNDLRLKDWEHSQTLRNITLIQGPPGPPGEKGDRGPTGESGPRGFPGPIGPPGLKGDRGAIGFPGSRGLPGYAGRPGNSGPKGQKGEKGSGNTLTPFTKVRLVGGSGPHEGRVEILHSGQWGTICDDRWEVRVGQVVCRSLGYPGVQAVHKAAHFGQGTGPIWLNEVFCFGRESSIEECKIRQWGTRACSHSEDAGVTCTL

[4] = molecular target: T3, full length human MSR1 with a …; assay: ECL cell binding, HEK293.Myc.hMSR1 cells, 11 nM
Experimental: as §1

[5] = molecular target: T4, mouse MSR1 extracellular domain expressed with a N-terminal nonahistidine tag (His9-mMSR1); R&D Systems, Cat … (mouse, UniProt P30204 79-458); assay: BLI Octet, 25 C, antibody captured
T4 construct: extracellular domain; not shown: N-terminal nonahistidine tag
T4 sequence (looked up): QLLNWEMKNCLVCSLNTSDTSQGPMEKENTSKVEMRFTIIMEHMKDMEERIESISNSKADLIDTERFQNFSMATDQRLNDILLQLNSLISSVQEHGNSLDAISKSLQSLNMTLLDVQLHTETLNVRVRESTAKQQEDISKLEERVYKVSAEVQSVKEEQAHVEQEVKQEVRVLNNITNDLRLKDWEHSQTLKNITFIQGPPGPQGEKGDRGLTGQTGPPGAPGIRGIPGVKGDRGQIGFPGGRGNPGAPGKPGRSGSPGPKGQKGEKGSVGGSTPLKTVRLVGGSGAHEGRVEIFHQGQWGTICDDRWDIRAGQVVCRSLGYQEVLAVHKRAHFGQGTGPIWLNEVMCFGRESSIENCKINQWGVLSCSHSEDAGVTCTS

[6] = molecular target: T5, human MSR1 extracellular domain expressed with a N-terminal nonahistidine tag (His9-hMSR1); R&D Systems, Cat … (human, UniProt P21757 77-451); assay: SPR Biacore, 37 C, antibody captured
T5 construct: extracellular domain; also called His-hMSR1; 9xHis-hMSR1; not shown: N-terminal nonahistidine tag
T5 sequence (looked up): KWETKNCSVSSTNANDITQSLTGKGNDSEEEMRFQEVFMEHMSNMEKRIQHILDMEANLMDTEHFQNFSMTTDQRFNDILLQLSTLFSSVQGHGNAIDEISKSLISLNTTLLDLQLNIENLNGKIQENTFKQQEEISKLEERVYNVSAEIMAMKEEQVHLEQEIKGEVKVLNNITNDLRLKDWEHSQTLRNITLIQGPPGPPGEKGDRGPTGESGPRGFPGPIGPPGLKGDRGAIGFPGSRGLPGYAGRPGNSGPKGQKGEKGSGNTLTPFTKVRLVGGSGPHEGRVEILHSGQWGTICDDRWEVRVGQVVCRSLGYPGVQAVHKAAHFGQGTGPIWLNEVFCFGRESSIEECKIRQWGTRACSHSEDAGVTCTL

[7] = molecular target: T6, monkey MSR1 extracellular domain expressed with a N-terminal hexahistidine-myc-myc tag (HMM-mfMSR1) (monkey (Macaca fascicularis)); assay: SPR Biacore, 37 C, antibody captured
T6 chain: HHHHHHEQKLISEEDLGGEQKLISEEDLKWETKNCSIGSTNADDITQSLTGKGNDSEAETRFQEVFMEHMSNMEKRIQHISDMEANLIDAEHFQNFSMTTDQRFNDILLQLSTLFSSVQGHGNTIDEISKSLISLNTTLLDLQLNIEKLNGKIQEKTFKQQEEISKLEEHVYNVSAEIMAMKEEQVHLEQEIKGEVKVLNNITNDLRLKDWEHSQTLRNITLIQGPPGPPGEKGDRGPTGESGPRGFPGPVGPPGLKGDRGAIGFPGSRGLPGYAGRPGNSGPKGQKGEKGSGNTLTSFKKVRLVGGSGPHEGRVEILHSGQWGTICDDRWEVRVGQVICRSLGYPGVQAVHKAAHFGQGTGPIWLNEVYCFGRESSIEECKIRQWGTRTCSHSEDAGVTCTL

[8] = molecular target: T6, monkey MSR1 extracellular domain …; assay: SPR Biacore, 25 C, antibody captured;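 further: rates from 1:1 fit with mass transport limitation of real-time sensorgrams, HEPES-buffered saline with EDTA and Tween-20 at pH 7.4, KD and t½ derived from the kinetic rates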
Experimental: (§2) Binding affinities and kinetic constants of human anti-MSR1 antibodies for different MSR1 reagents were determined by real-time surface plasmon resonance (Biacore 4000). All binding studies were performed in 10 mM HEPES, 150 mM NaCl, 3 mM EDTA, and 0.05% v/v Surfactant Tween-20, pH 7.4 (HBS-ET) running buffer at 25° C. and 37° C.
(§3) The association rate (kₐ) and dissociation rate (kd) were determined by fitting the real-time binding sensorgrams to a 1:1 binding model with mass transport limitation using Scrubber 2.0c curve-fitting software. Binding dissociation equilibrium constant (KD) and dissociative half-life (t½) were calculated from the kinetic rates as:

[9] = molecular target: T5, human MSR1 extracellular domain …; assay: SPR Biacore, 25 C, antibody captured; kd fixed, no dissociation seen
Experimental: as §2, §3

B1: H1H27731P-N297Q (antibody, V domains shown)
VH: QLQLQESGPGLVKPSETLSLTCTVSGGSISRISYYWGWIRQPPGKGLEWIGSIYDSGSTYYNPSLKSRVTISIDTSKNQFSLKLSSVTAADTAVYYCVRYSSSSAFAFDYWGQGTLVTVSS
VL: DIQMTQSPSSVSASVGDRVTITCRASQGISSWLAWYQQKPGKAPKLLIYAASSLQSGVPSRFSGSGSGTDFTLTISSLQPEDFATYYCQQANSFPFTFGPGTKVDIKR
notes: human IgG1 Fc with N297Q
MFI [1]: 3510 MFI
S/N (MFI over unstained MFI) [1]: 1
ratio of binding signal (RLU) to isotype control [2]: 43 fold
% Inhibition of Dil-Acetylated LDL uptake [3]: 37%
% Inhibition of Dil-Oxidized LDL uptake [3]: 62%
IC50 of Dil-Acetylated LDL uptake inhibition [3]: 1.8 nM
IC50 of Dil-Oxidized LDL uptake inhibition [3]: > 10 nM
ratio of binding signal (RLU) to isotype control [4]: 48 fold

B2: H1H21234N-N297Q (antibody, human IgG1, V domains shown)
VH: QVQLQESGPGLVKPSETLSLTCTVTGGSISRNYWSWIRQPPGKGLEWIGYIYYSGSIDYNPSLKSRVTISVDTSKNQFSLKLSSMTAADTAVYYCARDRWNWKYGMDVWGQGTTVIVSS
VL: EIVLTQSPGTLSLSPGERATLSCRASQTVRNNYLAWYHQKPGQAPRLLIYGASSRATGIPDRFSGSGSGTDFTLTISRLEPEDFTVYYCHQYGNSPWTFGQGTKMEIKR
notes: human IgG1 Fc with N297Q point mutation (EU numbering)
MFI [1]: 7050 MFI
S/N (MFI over unstained MFI) [1]: 3
ratio of binding signal (RLU) to isotype control [2]: 35 fold
% Inhibition of Dil-Acetylated LDL uptake [3]: 34%
% Inhibition of Dil-Oxidized LDL uptake [3]: 52%
IC50 of Dil-Acetylated LDL uptake inhibition [3]: 1.3 nM
IC50 of Dil-Oxidized LDL uptake inhibition [3]: 6.1 nM
ratio of binding signal (RLU) to isotype control [4]: 43 fold

B3: H1H27766P2-N297Q (antibody, human IgG1, V domains shown)
VH: EVQLVESGGGLVQPGGSLRLSCAASGFTFSSFAMSWVRQAPGKELEWVSSISGRGGSTYYADSVRGRFTISRDNSKITLYLQMNSLRAEDTAVYYCAKDIVFRYTSSAYWYFDLWGRGTLVTVSS
VL: not shown
notes: human IgG1 Fc with N297Q; also called H1H27766P-N297Q
MFI [1]: 3810 MFI
S/N (MFI over unstained MFI) [1]: 1
ratio of binding signal (RLU) to isotype control [2]: 13 fold
% Inhibition of Dil-Acetylated LDL uptake [3]: 38%
% Inhibition of Dil-Oxidized LDL uptake [3]: 72%
IC50 of Dil-Acetylated LDL uptake inhibition [3]: 3.5 nM
IC50 of Dil-Oxidized LDL uptake inhibition [3]: 3.7 nM
ratio of binding signal (RLU) to isotype control [4]: 20 fold

B4: H1H27729P-N297Q (antibody, human IgG1, V domains shown)
VH: QVQLVESGGGLVKPGGSLRLSCAASGFIFSDYYMSWIRQAPGKGLEWVSYISSSGTTIYGDSVKGRFTMSRDNAKNSLYLQMNSLRAEDTAVYYCARNYALFDYWGQGTLVTVSS
VL: DIQMTQSPSSLSASVGDRVTITCQASQDISKYLNWYQQKPGKAPKLLIYYTSNLETGVPSRFSGSGSGTDFTFTISSLQPEDIATYYCHQSDYLPFTFGPGTKVDIKR
notes: human IgG1 Fc with N297Q
MFI [1]: 3480 MFI
S/N (MFI over unstained MFI) [1]: 1
ratio of binding signal (RLU) to isotype control [2]: 6 fold
% Inhibition of Dil-Acetylated LDL uptake [3]: 28%
IC50 of Dil-Acetylated LDL uptake inhibition [3]: 1.2 nM
ratio of binding signal (RLU) to isotype control [4]: 17 fold

B5: H1H27734P-N297Q (antibody, human IgG1, V domains shown)
VH: EVQLVESRGGLVQPGGSLRLSCAASGFTFSSYAMSWVRQAPGKGLEWVSAISGSGGSTFYADSVKGRFTISRDNSKNTVYLQMNSLRAEDTAVYYCAKALVLRFLEWLGDYWGQGTLVTVSS
VL: DIQMTQSPSTLSASVGDRVTITCRASQSISSWLAWFQQKPGKAPKLLIYKASSLESGVPSRFSGSGSGTEFTLTISSLQPDDFATYYCQQYKSYWTFGQGTKVEIKR
notes: human IgG1 Fc with N297Q
MFI [1]: 4780 MFI
S/N (MFI over unstained MFI) [1]: 1
ratio of binding signal (RLU) to isotype control [2]: 28 fold
% Inhibition of Dil-Oxidized LDL uptake [3]: 22%
IC50 of Dil-Oxidized LDL uptake inhibition [3]: 5.5 nM
ratio of binding signal (RLU) to isotype control [4]: 40 fold

B6: H1H27732P-N297Q (antibody, V domains shown)
VH: QLQLQESGPGLVKPSETLSLTCTVSGGSISSSTYYWGWIRQPPGKGLEWIGSFYYSGSTYYNPSLKSRVTISVGTSKNQFSLKLSSVTAADTAVYFCARGGLLGRPFVIWGQGTMVTVSS
VL: DIQMTQSPSSLSASVGDRVTITCRASQGIRNDLGWYQQKPGKAPKRLIYAASSLQSGVPSRFSGSGSGTEFTLTISSLQPEDFATYYCLQHNSYPLTFGGGTKVEIKR
notes: Human IgG1 Fc with N297Q point mutation
binding result [5]: no binding (tested: 50 nM)
Kd [6]: 0.111 nM
t½ [6]: 370 min
Kd [7]: 0.317 nM
t½ [7]: 109 min
Kd [8]: 0.248 nM
t½ [8]: 364 min
Kd [9]: ≤ 0.0801 nM
t½ [9]: 1160 min

From US20190367631A1 (Regeneron, published 2019)
